Data from IntAct's records for PubMed 26051712.

B1: Inner nuclear membrane protein HEH2 (Saccharomyces cerevisiae), Q03281 (parent)
chain: MDHRNLDPKTLKVSQLRRVLVENDVAFPANARKPVLVKLFEEKVRQRLQSSPEASKVRTSIQKVVKSGAKNADRKKTLKSKKLESSSSESKTVKDENVETNKRKREQISTDNEAKMQIQEEKSPKKKRKKRSSKANKPPESPPQSKSDGKATSADLTSELETVEELHKKDSSDDKPRVKELPKPELPNLKVSNEFLAQLNKELASAATENYDHSIKSTDLSSIRIETEEPVGPSTGAETRNESEVMENINLEVQPEVKEAKEELTKISETFDNQDEEDTSRLSSKKNIRSPKGRTRHFIANKTKRGIDIMKPFIAHLFIWLWNGAIFLSIICPILFGLWYREQRIQVGYCGHEKPLKSLAISAFPQTERVDSVLQAYRPNCLECPEHGICSSFMNVECEPGYEPKSSILETYGIIPFPKYCAKDESKEKEVDELVWKVNEYLKKKNAQHECGEGENLFESGETETKLYDIFSHSRPSWESQREFNDHWKNVLEILKKKDDIIWLPLDFETNGKREKSKSNNTNYIYRSTSKKWVTLQCHLEGDIQEYITKYGGSLFITLGVLFLIKKIQSTLDNYVQGEQIIEKLVKEAIDKLKDVKKNKGEEPFLTTVQLRATLLSDIPNIKEQNNLWAQTKEKIMKEQSENIELYLLEENGEIMTCWEWKE
B2: Inner nuclear membrane protein SRC1 (Saccharomyces cerevisiae), Q03707 (parent)
chain: MNSDLEYLEDGFDPNSMKVATLRRILVENNVDFPSNARKNALVGLFDEKVKPQIPQLRKMYLNVRPSDEGIVKMDRPSSSPSIASPRRSRRARREKSASPMAKQFKKNRILDDVSNDDDDDDDDDDDNDKKDDPLIVPSGTDTDEVDDEEDDVITSSSNKSDTNDFQQNSDTRKKRKDPDSDDWSESNSKENKIDNKHLNLLSSDSEIEQDYQKAKKRKTSDLNQEHGNGSAILGKLSVKTPIKNTNRKPVSMDNFNDSLTSSGTENDPFVPNIRHNPKELGTANGTGHSTPLSKLKVSASFADKLPQKEVPSTILVPEVEQQEPSQSERTPSLFSSEGSGSESEAPLLPEITTPGPHQPMGNTSNNVVEMIDTDSSNLVSDEDEVLVPTRIETPQLPTEKDVEKCEARVQELQEEVNEQLEHENGSEFDVKQGSGKVGNRHKFKRALKFLSKSLLALFLFCIFIVIPLLFGLWYREQRLLIGYCGHEVPSHRVSGNSFEFIQKLDNLLQDYRPKCIPCPPNGICYPYLKLKCKPDYKLAPSRLDFLEIIPAQGKCVKDDKKQQLVSEVVEKSLEFLRAKNAQISCGDGKDDIESGMTEDALYQIFNEARAPWIRDDEFEDLWIQVIKDLTEEPEILWRQLSPTDNNIGGNSNNIIKTNDVPRQKRHLPEKFISKTRNFRSTSKKYIGMKCRFEREIYQTYKKFQRPIWLMFLLIVISKVIEIKLKNYYRKKARIEELVTQTMEKLKFQKIKSMSDPKENAYLSIVQLRDIFLSDIVDLKYKNQLWSEVVKYLEHNNSNIKSNLTEIRGEIMKCWEWIGPMELNEPKDSAENKI

Variants of: B1
Settings: with ima1_yeast SRP1, Q02821
Sequence of ima1_yeast SRP1, Q02821 (Q02821 whole entry): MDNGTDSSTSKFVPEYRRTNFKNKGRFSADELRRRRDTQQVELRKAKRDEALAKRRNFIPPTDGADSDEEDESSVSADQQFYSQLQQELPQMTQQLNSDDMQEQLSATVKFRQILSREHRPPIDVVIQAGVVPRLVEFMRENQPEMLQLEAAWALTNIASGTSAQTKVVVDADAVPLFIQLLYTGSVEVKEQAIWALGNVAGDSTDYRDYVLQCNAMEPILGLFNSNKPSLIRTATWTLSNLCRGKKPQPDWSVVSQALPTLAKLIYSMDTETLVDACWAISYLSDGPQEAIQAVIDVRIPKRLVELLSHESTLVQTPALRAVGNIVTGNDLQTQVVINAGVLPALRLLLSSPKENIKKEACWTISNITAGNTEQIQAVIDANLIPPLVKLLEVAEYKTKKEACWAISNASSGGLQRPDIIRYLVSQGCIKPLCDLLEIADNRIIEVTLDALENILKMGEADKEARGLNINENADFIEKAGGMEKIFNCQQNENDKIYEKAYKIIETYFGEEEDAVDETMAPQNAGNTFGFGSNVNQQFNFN

| Variant | effect of a mutation on the interaction |
| --- | --- |
| K126A | decreasing interaction strength |
| R103A | decreasing interaction strength |
| R103A;K126A | decreasing interaction strength |

Variants of: B2
Settings: with ima1_yeast SRP1, Q02821

| Variant | effect of a mutation on the interaction |
| --- | --- |
| R176A;K190A | decreasing interaction strength |
| R176A | decreasing interaction strength |

Variants of: B2
Settings: with ima1_yeast SRP1, Q02821
Remark: another data set of the same source

| Variant | effect of a mutation on the interaction |
| --- | --- |
| K190A | decreasing interaction strength |
